# Results reported in patent US20140275490A1.
# B1: hum20D7 (antibody, from another filing, V domains shown)
# VH: QVQLVQSGAEVKKPGASVKVSCKASGYTFTNYAMNWVRQAPGQGLEWMGWINTYTGEPTYSDDFKGRVTFTLDTSTSTAYMELRSLRSDDTAVYYCARGGGYDEDYFDYWGQGTLVTVSS
# VL: DIVMTQSPLSLPVTPGEPASISCKSSQSLFNTINQKTYLAWYLQKPGQSPQLLIYFASTRESGVPDRFSGSGSGTDFTLKISRVEAEDVGVYYCQQHYDTPWTFGQGTKVEIKR
# Columns and labels:
# [1] = molecular target: monkey IL-23R-mouse Fc fusion protein (monkey; mouse); experiment: antigen ELISA, monkey IL-23R-Fc immobilized, HRP anti-human IgG, chemiluminescence
# human IL-23R (human) = human IL-23R (human) (UniProt Q5VWK5); experiment: cell-based or functional assay
# Chain of human IL-23R (human) (Q5VWK5 24-629 L310P limits assumed): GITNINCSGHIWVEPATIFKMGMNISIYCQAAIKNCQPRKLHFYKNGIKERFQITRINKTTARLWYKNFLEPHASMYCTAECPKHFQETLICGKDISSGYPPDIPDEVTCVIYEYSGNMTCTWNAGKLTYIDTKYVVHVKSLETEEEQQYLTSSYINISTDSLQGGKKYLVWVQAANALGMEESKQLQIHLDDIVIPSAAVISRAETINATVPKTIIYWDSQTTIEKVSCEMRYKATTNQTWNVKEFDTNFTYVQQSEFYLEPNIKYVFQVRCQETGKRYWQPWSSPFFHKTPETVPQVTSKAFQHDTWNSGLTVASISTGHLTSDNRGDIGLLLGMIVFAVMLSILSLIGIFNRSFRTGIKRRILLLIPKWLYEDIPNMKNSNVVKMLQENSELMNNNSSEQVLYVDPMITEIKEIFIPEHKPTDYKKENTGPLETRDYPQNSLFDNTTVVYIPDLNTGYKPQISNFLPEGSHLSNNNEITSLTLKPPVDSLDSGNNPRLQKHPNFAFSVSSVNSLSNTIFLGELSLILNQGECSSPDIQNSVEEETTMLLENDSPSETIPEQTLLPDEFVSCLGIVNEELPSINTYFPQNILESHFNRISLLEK
# [2] = molecular target: human IL-23R-mouse Fc fusion protein (human; mouse) (UniProt Q5VWK5); experiment: antigen ELISA, human IL-23R-Fc immobilized, HRP anti-human IgG, chemiluminescence
# Chain of human IL-23R-mouse Fc fusion protein (human; mouse) (Q5VWK5 24-353 L310P): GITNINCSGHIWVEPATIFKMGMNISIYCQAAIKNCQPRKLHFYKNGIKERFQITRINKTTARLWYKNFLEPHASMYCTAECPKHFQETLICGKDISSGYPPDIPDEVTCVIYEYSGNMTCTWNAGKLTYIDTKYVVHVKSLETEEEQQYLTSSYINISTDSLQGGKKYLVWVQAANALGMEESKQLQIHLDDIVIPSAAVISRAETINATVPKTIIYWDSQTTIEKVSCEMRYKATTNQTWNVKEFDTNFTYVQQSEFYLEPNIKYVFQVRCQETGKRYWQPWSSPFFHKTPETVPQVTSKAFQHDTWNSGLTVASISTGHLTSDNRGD
binder,measurement,setting,value
B1,EC50,[1],> 10 µg/mL
same,"IC50, IL-23-stimulated STAT3 phosphorylation in CD4 lymphocytes of human whole blood",human IL-23R (human),0.01 µg/mL
same,"IC50, inhibition of human IL-23-inducible Kit-225 cell proliferation",human IL-23R (human),0.055 µg/mL
same,EC50,[2],0.0485 µg/mL
